Reference: the Human Domainome abundance scans (Beltran et al. 2025)
± gives the uncertainty stated by the source.

Assay: abundance fitness (aPCA) (normalised: wild type 0, dead -1); higher = more abundant; growth selection in yeast, the domain comes from the species named
Details: Homo sapiens

Substance | abundance fitness
DnaJ homolog subfamily B member 1 E18K, P25685 | -0.205 ± 0.11
DnaJ homolog subfamily B member 1 L9E, P25685 | -0.631 ± 0.13
DnaJ homolog subfamily B member 1 Y52F, P25685 | 0.076 ± 0.091
DnaJ homolog subfamily B member 1 Y52R, P25685 | -0.305 ± 0.071
DnaJ homolog subfamily B member 1 A15F, P25685 | -0.814 ± 0.13
DnaJ homolog subfamily B member 1 A15D, P25685 | -0.502 ± 0.092
DnaJ homolog subfamily B member 1 L11W, P25685 | -1.44 ± 0.15
DnaJ homolog subfamily B member 1 G10N, P25685 | -0.333 ± 0.25
DnaJ homolog subfamily B member 1 Y5C, P25685 | -0.164 ± 0.18
DnaJ homolog subfamily B member 1 L29H, P25685 | -0.015 ± 0.12
DnaJ homolog subfamily B member 1 L55F, P25685 | -0.649 ± 0.1
DnaJ homolog subfamily B member 1 H32N, P25685 | 0.017 ± 0.15
DnaJ homolog subfamily B member 1 G10D, P25685 | -0.141 ± 0.074
DnaJ homolog subfamily B member 1 I48M, P25685 | -0.111 ± 0.099
DnaJ homolog subfamily B member 1 E19H, P25685 | -0.363 ± 0.14
DnaJ homolog subfamily B member 1 G10Y, P25685 | -0.658 ± 0.12
DnaJ homolog subfamily B member 1 E42K, P25685 | 0.301 ± 0.14
DnaJ homolog subfamily B member 1 D17N, P25685 | -0.104 ± 0.12
DnaJ homolog subfamily B member 1 E43G, P25685 | 0.009 ± 0.074
DnaJ homolog subfamily B member 1 A41H, P25685 | -0.24 ± 0.096
DnaJ homolog subfamily B member 1 L55H, P25685 | -0.686 ± 0.14
DnaJ homolog subfamily B member 1 D4V, P25685 | -0.433 ± 0.13
DnaJ homolog subfamily B member 1 L9Q, P25685 | -0.649 ± 0.095
DnaJ homolog subfamily B member 1 Y24E, P25685 | -0.411 ± 0.1
DnaJ homolog subfamily B member 1 K37T, P25685 | -0.228 ± 0.11

Substance | abundance fitness
DnaJ homolog subfamily B member 1 K21S, P25685 | -0.097 ± 0.051
DnaJ homolog subfamily B member 1 E38P, P25685 | -0.342 ± 0.14
DnaJ homolog subfamily B member 1 K44E, P25685 | -0.322 ± 0.077
DnaJ homolog subfamily B member 1 D57Y, P25685 | -0.45 ± 0.11
DnaJ homolog subfamily B member 1 G40C, P25685 | -0.113 ± 0.16
DnaJ homolog subfamily B member 1 A23S, P25685 | -0.159 ± 0.056
DnaJ homolog subfamily B member 1 E50G, P25685 | -0.326 ± 0.13
DnaJ homolog subfamily B member 1 E38A, P25685 | -0.29 ± 0.26
DnaJ homolog subfamily B member 1 R59F, P25685 | -0.045 ± 0.15
DnaJ homolog subfamily B member 1 Y31N, P25685 | -0.287 ± 0.14
DnaJ homolog subfamily B member 1 V54E, P25685 | -0.126 ± 0.15
DnaJ homolog subfamily B member 1 E50Y, P25685 | -0.096 ± 0.12
DnaJ homolog subfamily B member 1 G14V, P25685 | -0.241 ± 0.11
DnaJ homolog subfamily B member 1 P58K, P25685 | 0.021 ± 0.31
DnaJ homolog subfamily B member 1 R25K, P25685 | -0.022 ± 0.057
DnaJ homolog subfamily B member 1 A49P, P25685 | -0.743 ± 0.074
DnaJ homolog subfamily B member 1 Y24K, P25685 | -0.358 ± 0.099
DnaJ homolog subfamily B member 1 P33H, P25685 | -0.292 ± 0.15
DnaJ homolog subfamily B member 1 Y5T, P25685 | -0.699 ± 0.24
DnaJ homolog subfamily B member 1 E18W, P25685 | -0.268 ± 0.061
DnaJ homolog subfamily B member 1 A15R, P25685 | -0.82 ± 0.055
DnaJ homolog subfamily B member 1 F45P, P25685 | -0.508 ± 0.072
DnaJ homolog subfamily B member 1 R61C, P25685 | -0.325 ± 0.15
DnaJ homolog subfamily B member 1 E43L, P25685 | 0.105 ± 0.066
DnaJ homolog subfamily B member 1 K35I, P25685 | -0.504 ± 0.086

Substance | abundance fitness
DnaJ homolog subfamily B member 1 V54S, P25685 | -0.15 ± 0.076
DnaJ homolog subfamily B member 1 P33N, P25685 | -0.009 ± 0.094
DnaJ homolog subfamily B member 1 A41P, P25685 | -0.432 ± 0.11
DnaJ homolog subfamily B member 1 D34L, P25685 | -0.042 ± 0.066
DnaJ homolog subfamily B member 1 E62I, P25685 | -0.378 ± 0.14
DnaJ homolog subfamily B member 1 L11Q, P25685 | -0.464 ± 0.14
DnaJ homolog subfamily B member 1 Y24D, P25685 | -0.654 ± 0.16
DnaJ homolog subfamily B member 1 P39K, P25685 | 0.027 ± 0.14
DnaJ homolog subfamily B member 1 V54F, P25685 | 0.077 ± 0.21
DnaJ homolog subfamily B member 1 E43C, P25685 | -0.07 ± 0.2
DnaJ homolog subfamily B member 1 E62G, P25685 | -0.272 ± 0.15
DnaJ homolog subfamily B member 1 V54H, P25685 | -0.886 ± 0.19
DnaJ homolog subfamily B member 1 P58I, P25685 | -0.256 ± 0.16
DnaJ homolog subfamily B member 1 P58C, P25685 | -0.256 ± 0.22
DnaJ homolog subfamily B member 1 T8A, P25685 | -0.143 ± 0.079
DnaJ homolog subfamily B member 1 D4T, P25685 | -0.207 ± 0.18
DnaJ homolog subfamily B member 1 N36M, P25685 | 0.035 ± 0.13
DnaJ homolog subfamily B member 1 A41L, P25685 | -0.168 ± 0.066
DnaJ homolog subfamily B member 1 D57C, P25685 | -0.09 ± 0.098
DnaJ homolog subfamily B member 1 K37S, P25685 | -0.225 ± 0.065
DnaJ homolog subfamily B member 1 P39I, P25685 | -0.038 ± 0.15
DnaJ homolog subfamily B member 1 G40R, P25685 | -0.041 ± 0.088
DnaJ homolog subfamily B member 1 G10F, P25685 | -0.542 ± 0.13
DnaJ homolog subfamily B member 1 D57V, P25685 | -0.317 ± 0.098
DnaJ homolog subfamily B member 1 A12Y, P25685 | -0.559 ± 0.46

Substance | abundance fitness
DnaJ homolog subfamily B member 1 A12D, P25685 | -0.38 ± 0.11
DnaJ homolog subfamily B member 1 R25N, P25685 | -0.144 ± 0.29
DnaJ homolog subfamily B member 1 R59I, P25685 | -0.232 ± 0.15
DnaJ homolog subfamily B member 1 D34E, P25685 | 0.188 ± 0.33
DnaJ homolog subfamily B member 1 A41F, P25685 | -0.128 ± 0.25
DnaJ homolog subfamily B member 1 Q27G, P25685 | -0.277 ± 0.093
DnaJ homolog subfamily B member 1 P33Q, P25685 | 0.057 ± 0.1
DnaJ homolog subfamily B member 1 L9K, P25685 | -1.26 ± 0.23
DnaJ homolog subfamily B member 1 Y24F, P25685 | -0.075 ± 0.2
DnaJ homolog subfamily B member 1 G40L, P25685 | -0.188 ± 0.1
DnaJ homolog subfamily B member 1 E62F, P25685 | -0.519 ± 0.12
DnaJ homolog subfamily B member 1 A51Y, P25685 | -0.576 ± 0.39
DnaJ homolog subfamily B member 1 R25F, P25685 | -0.199 ± 0.12
DnaJ homolog subfamily B member 1 S16L, P25685 | -0.297 ± 0.053
DnaJ homolog subfamily B member 1 A51P, P25685 | -0.488 ± 0.098
DnaJ homolog subfamily B member 1 L55C, P25685 | -0.788 ± 0.2
DnaJ homolog subfamily B member 1 V54I, P25685 | -0.096 ± 0.12
DnaJ homolog subfamily B member 1 P58H, P25685 | -0.192 ± 0.19
DnaJ homolog subfamily B member 1 D4P, P25685 | -0.712 ± 0.16
DnaJ homolog subfamily B member 1 A28Y, P25685 | 0.007 ± 0.14
DnaJ homolog subfamily B member 1 A12N, P25685 | -0.147 ± 0.089
DnaJ homolog subfamily B member 1 N36A, P25685 | 0.038 ± 0.084
DnaJ homolog subfamily B member 1 S16A, P25685 | -0.167 ± 0.066
DnaJ homolog subfamily B member 1 Y6S, P25685 | -0.817 ± 0.072
